In paper PMC9426492, “TrmB Family Transcription Factor as a Thiol-Based Regulator of Oxidative Stress Response” (mBio, 2022):

Target: the molecule itself
Assay: non-reducing SDS-PAGE (intersubunit disulfide bond assay); purified StrepII-tagged protein dialysed overnight in 100 mM Tris-Cl pH 7.5, 2 M NaCl; no reducing reagent; diluted 1:1 in SDS-loading buffer, boiled 10 min, 16% SDS-PAGE, Coomassie stain; shows only covalently (disulfide) linked subunits

B1: OxsR (HVO_2970) wild type with a C-terminal StrepII tag (natural protein, Haloferax volcanii, UniProt D4GY41 1-123, looked up)
chain: MADAPDMGELMETEDPNFGQVLACVFGIQSHESRTYLALLDNPGSTVAELAEVLDRDRSNVNRSLTTLLDKGLTERKRRLLDPGGYVYQYTATPLPEAKEMMHAALDEWAEDVHARIDAFGES
notes: 123 aa, 14 kDa; UniProtKB D4GY41; also called OxsR-StrepII; OxsR wt; source: H. volcanii SH125 (H26 ΔoxsR) carrying pJAM4019, purified (Strep-Tactin Superflow Plus resin, 2 M NaCl buffers); not shown: StrepII, C-terminal, kept
B1: binds.
